The text below walks through data of IntAct's records for PubMed 35512704.

Sequences and labels used below:
B1: Speckle-type POZ protein (Homo sapiens), O43791 (parent)
chain: MSRVPSPPPPAEMSSGPVAESWCYTQIKVVKFSYMWTINNFSFCREEMGEVIKSSTFSSGANDKLKWCLRVNPKGLDEESKDYLSLYLLLVSCPKSEVRAKFKFSILNAKGEETKAMESQRAYRFVQGKDWGFKKFIRRDFLLDEANGLLPDDKLTLFCEVSVVQDSVNISGQNTMNMVKVPECRLADELGGLWENSRFTDCCLCVAGQEFQAHKAILAARSPVFSAMFEHEMEESKKNRVEINDVEPEVFKEMMCFIYTGKAPNLDKMADDLLAAADKYALERLKVMCEDALCSNLSVENAAEILILADLHSADQLKTQAVDFINYHASDVLETSGWKSMVVSHPHLVAEAYRSLASAQCPFLGPPRKRLKQS

One assay covers variants of B1. As to conditions: with bap1_human BAP1, Q92560.
As for MSRVPSPPPPAEMSSGPVAESWCYTQIKVVKFSYMWTINNFSFCREEMGEVIKSSTFSSGANDKLKWCLRVNPKGLDEESKDYLSLYLLLVSCPKSEVRAKFKFSILNAKGEETKAMESQRAYRFVQGKDWGLKKFIRRDFLLDEANGLLPDDKLTLFCEVSVVQDSVNISGQNTMNMVKVPECRLADELGGLWENSRFTDCCLCVAGQEFQAHKAILAARSPVFSAMFEHEMEESKKNRVEINDVEPEVFKEMMCFIYTGKAPNLDKMADDLLAAADKYALERLKVMCEDALCSNLSVENAAEILILADLHSADQLKTQAVDFINYHASDVLETSGWKSMVVSHPHLVAEAYRSLASAQCPFLGPPRKRLKQS [F133L], the “effect of a mutation on the interaction” value was “with no effect”.

In the next assay the parent is B1. As to conditions: with bcor_human BCOR.
With MSRVPSPPPPAEMSSGPVAESWCYTQIKVVKFSYMWTINNFSFCREEMGEVIKSSTFSSGANDKLKWCLRVNPKGLDEESKDYLSLYLLLVSCPKSEVRAKFKFSILNAKGEETKAMESQRAYRFVQGKDWGLKKFIRRDFLLDEANGLLPDDKLTLFCEVSVVQDSVNISGQNTMNMVKVPECRLADELGGLWENSRFTDCCLCVAGQEFQAHKAILAARSPVFSAMFEHEMEESKKNRVEINDVEPEVFKEMMCFIYTGKAPNLDKMADDLLAAADKYALERLKVMCEDALCSNLSVENAAEILILADLHSADQLKTQAVDFINYHASDVLETSGWKSMVVSHPHLVAEAYRSLASAQCPFLGPPRKRLKQS [F133L], the “effect of a mutation on the interaction” value was “with no effect”.

A further assay covers variants of B1. As to conditions: with brd4_human BRD4, O60885.
Regarding MSRVPSPPPPAEMSSGPVAESWCYTQIKVVKFSYMWTINNFSFCREEMGEVIKSSTFSSGANDKLKWCLRVNPKGLDEESKDYLSLYLLLVSCPKSEVRAKFKFSILNAKGEETKAMESQRAYRFVQGKDWGLKKFIRRDFLLDEANGLLPDDKLTLFCEVSVVQDSVNISGQNTMNMVKVPECRLADELGGLWENSRFTDCCLCVAGQEFQAHKAILAARSPVFSAMFEHEMEESKKNRVEINDVEPEVFKEMMCFIYTGKAPNLDKMADDLLAAADKYALERLKVMCEDALCSNLSVENAAEILILADLHSADQLKTQAVDFINYHASDVLETSGWKSMVVSHPHLVAEAYRSLASAQCPFLGPPRKRLKQS [F133L], the “effect of a mutation on the interaction” value is “with no effect”.

The next assay covers variants of B1. As to conditions: with baba2_human BABAM2, Q9NXR7.
On to MSRVPSPPPPAEMSSGPVAESWCYTQIKVVKFSYMWTINNFSFCREEMGEVIKSSTFSSGANDKLKWCLRVNPKGLDEESKDYLSLYLLLVSCPKSEVRAKFKFSILNAKGEETKAMESQRAYRFVQGKDWGLKKFIRRDFLLDEANGLLPDDKLTLFCEVSVVQDSVNISGQNTMNMVKVPECRLADELGGLWENSRFTDCCLCVAGQEFQAHKAILAARSPVFSAMFEHEMEESKKNRVEINDVEPEVFKEMMCFIYTGKAPNLDKMADDLLAAADKYALERLKVMCEDALCSNLSVENAAEILILADLHSADQLKTQAVDFINYHASDVLETSGWKSMVVSHPHLVAEAYRSLASAQCPFLGPPRKRLKQS [F133L], for which the “effect of a mutation on the interaction” value is “with no effect”.

The variants in a further assay derive from B1. As to conditions: with btg1_human BTG1, P62324.
As for MSRVPSPPPPAEMSSGPVAESWCYTQIKVVKFSYMWTINNFSFCREEMGEVIKSSTFSSGANDKLKWCLRVNPKGLDEESKDYLSLYLLLVSCPKSEVRAKFKFSILNAKGEETKAMESQRAYRFVQGKDWGLKKFIRRDFLLDEANGLLPDDKLTLFCEVSVVQDSVNISGQNTMNMVKVPECRLADELGGLWENSRFTDCCLCVAGQEFQAHKAILAARSPVFSAMFEHEMEESKKNRVEINDVEPEVFKEMMCFIYTGKAPNLDKMADDLLAAADKYALERLKVMCEDALCSNLSVENAAEILILADLHSADQLKTQAVDFINYHASDVLETSGWKSMVVSHPHLVAEAYRSLASAQCPFLGPPRKRLKQS [F133L], the “effect of a mutation on the interaction” value is reported as “with no effect”.

In another assay the parent is B1. As to conditions: with btk_human BTK.
As for MSRVPSPPPPAEMSSGPVAESWCYTQIKVVKFSYMWTINNFSFCREEMGEVIKSSTFSSGANDKLKWCLRVNPKGLDEESKDYLSLYLLLVSCPKSEVRAKFKFSILNAKGEETKAMESQRAYRFVQGKDWGLKKFIRRDFLLDEANGLLPDDKLTLFCEVSVVQDSVNISGQNTMNMVKVPECRLADELGGLWENSRFTDCCLCVAGQEFQAHKAILAARSPVFSAMFEHEMEESKKNRVEINDVEPEVFKEMMCFIYTGKAPNLDKMADDLLAAADKYALERLKVMCEDALCSNLSVENAAEILILADLHSADQLKTQAVDFINYHASDVLETSGWKSMVVSHPHLVAEAYRSLASAQCPFLGPPRKRLKQS [F133L], the “effect of a mutation on the interaction” value is “with no effect”.

A further assay covers variants of B1. As to conditions: with cblb_human CBLB.
On to MSRVPSPPPPAEMSSGPVAESWCYTQIKVVKFSYMWTINNFSFCREEMGEVIKSSTFSSGANDKLKWCLRVNPKGLDEESKDYLSLYLLLVSCPKSEVRAKFKFSILNAKGEETKAMESQRAYRFVQGKDWGLKKFIRRDFLLDEANGLLPDDKLTLFCEVSVVQDSVNISGQNTMNMVKVPECRLADELGGLWENSRFTDCCLCVAGQEFQAHKAILAARSPVFSAMFEHEMEESKKNRVEINDVEPEVFKEMMCFIYTGKAPNLDKMADDLLAAADKYALERLKVMCEDALCSNLSVENAAEILILADLHSADQLKTQAVDFINYHASDVLETSGWKSMVVSHPHLVAEAYRSLASAQCPFLGPPRKRLKQS [F133L], for which the “effect of a mutation on the interaction” value is recorded as “with no effect”.

The variants in the next assay derive from B1. As to conditions: with ccnd1_human CCND1, P24385.
Take MSRVPSPPPPAEMSSGPVAESWCYTQIKVVKFSYMWTINNFSFCREEMGEVIKSSTFSSGANDKLKWCLRVNPKGLDEESKDYLSLYLLLVSCPKSEVRAKFKFSILNAKGEETKAMESQRAYRFVQGKDWGLKKFIRRDFLLDEANGLLPDDKLTLFCEVSVVQDSVNISGQNTMNMVKVPECRLADELGGLWENSRFTDCCLCVAGQEFQAHKAILAARSPVFSAMFEHEMEESKKNRVEINDVEPEVFKEMMCFIYTGKAPNLDKMADDLLAAADKYALERLKVMCEDALCSNLSVENAAEILILADLHSADQLKTQAVDFINYHASDVLETSGWKSMVVSHPHLVAEAYRSLASAQCPFLGPPRKRLKQS [F133L]: the “effect of a mutation on the interaction” value is “with no effect”.

In the next assay the parent is B1. As to conditions: with ccnd2_human CCND2, P30279.
On to MSRVPSPPPPAEMSSGPVAESWCYTQIKVVKFSYMWTINNFSFCREEMGEVIKSSTFSSGANDKLKWCLRVNPKGLDEESKDYLSLYLLLVSCPKSEVRAKFKFSILNAKGEETKAMESQRAYRFVQGKDWGLKKFIRRDFLLDEANGLLPDDKLTLFCEVSVVQDSVNISGQNTMNMVKVPECRLADELGGLWENSRFTDCCLCVAGQEFQAHKAILAARSPVFSAMFEHEMEESKKNRVEINDVEPEVFKEMMCFIYTGKAPNLDKMADDLLAAADKYALERLKVMCEDALCSNLSVENAAEILILADLHSADQLKTQAVDFINYHASDVLETSGWKSMVVSHPHLVAEAYRSLASAQCPFLGPPRKRLKQS [F133L], for which the “effect of a mutation on the interaction” value is “with no effect”.

In the next assay the parent is B1. As to conditions: with ccnd3_human CCND3, P30281.
Take MSRVPSPPPPAEMSSGPVAESWCYTQIKVVKFSYMWTINNFSFCREEMGEVIKSSTFSSGANDKLKWCLRVNPKGLDEESKDYLSLYLLLVSCPKSEVRAKFKFSILNAKGEETKAMESQRAYRFVQGKDWGLKKFIRRDFLLDEANGLLPDDKLTLFCEVSVVQDSVNISGQNTMNMVKVPECRLADELGGLWENSRFTDCCLCVAGQEFQAHKAILAARSPVFSAMFEHEMEESKKNRVEINDVEPEVFKEMMCFIYTGKAPNLDKMADDLLAAADKYALERLKVMCEDALCSNLSVENAAEILILADLHSADQLKTQAVDFINYHASDVLETSGWKSMVVSHPHLVAEAYRSLASAQCPFLGPPRKRLKQS [F133L]: the “effect of a mutation on the interaction” value was “with no effect”.

Variants of B1 are the subject of the next assay. As to conditions: with cd44_human CD44, P16070.
In the case of MSRVPSPPPPAEMSSGPVAESWCYTQIKVVKFSYMWTINNFSFCREEMGEVIKSSTFSSGANDKLKWCLRVNPKGLDEESKDYLSLYLLLVSCPKSEVRAKFKFSILNAKGEETKAMESQRAYRFVQGKDWGLKKFIRRDFLLDEANGLLPDDKLTLFCEVSVVQDSVNISGQNTMNMVKVPECRLADELGGLWENSRFTDCCLCVAGQEFQAHKAILAARSPVFSAMFEHEMEESKKNRVEINDVEPEVFKEMMCFIYTGKAPNLDKMADDLLAAADKYALERLKVMCEDALCSNLSVENAAEILILADLHSADQLKTQAVDFINYHASDVLETSGWKSMVVSHPHLVAEAYRSLASAQCPFLGPPRKRLKQS [F133L], the “effect of a mutation on the interaction” value was “with no effect”.

In another assay the parent is B1. As to conditions: with cd79b_human CD79B.
As to MSRVPSPPPPAEMSSGPVAESWCYTQIKVVKFSYMWTINNFSFCREEMGEVIKSSTFSSGANDKLKWCLRVNPKGLDEESKDYLSLYLLLVSCPKSEVRAKFKFSILNAKGEETKAMESQRAYRFVQGKDWGLKKFIRRDFLLDEANGLLPDDKLTLFCEVSVVQDSVNISGQNTMNMVKVPECRLADELGGLWENSRFTDCCLCVAGQEFQAHKAILAARSPVFSAMFEHEMEESKKNRVEINDVEPEVFKEMMCFIYTGKAPNLDKMADDLLAAADKYALERLKVMCEDALCSNLSVENAAEILILADLHSADQLKTQAVDFINYHASDVLETSGWKSMVVSHPHLVAEAYRSLASAQCPFLGPPRKRLKQS [F133L], the “effect of a mutation on the interaction” value was “with no effect”.

The variants in another assay derive from B1. As to conditions: with cdc27_human CDC27, P30260.
On to MSRVPSPPPPAEMSSGPVAESWCYTQIKVVKFSYMWTINNFSFCREEMGEVIKSSTFSSGANDKLKWCLRVNPKGLDEESKDYLSLYLLLVSCPKSEVRAKFKFSILNAKGEETKAMESQRAYRFVQGKDWGLKKFIRRDFLLDEANGLLPDDKLTLFCEVSVVQDSVNISGQNTMNMVKVPECRLADELGGLWENSRFTDCCLCVAGQEFQAHKAILAARSPVFSAMFEHEMEESKKNRVEINDVEPEVFKEMMCFIYTGKAPNLDKMADDLLAAADKYALERLKVMCEDALCSNLSVENAAEILILADLHSADQLKTQAVDFINYHASDVLETSGWKSMVVSHPHLVAEAYRSLASAQCPFLGPPRKRLKQS [F133L], for which the “effect of a mutation on the interaction” value is reported as “with no effect”.

In another assay the parent is B1. As to conditions: with cdc73_human CDC73, Q6P1J9.
As for MSRVPSPPPPAEMSSGPVAESWCYTQIKVVKFSYMWTINNFSFCREEMGEVIKSSTFSSGANDKLKWCLRVNPKGLDEESKDYLSLYLLLVSCPKSEVRAKFKFSILNAKGEETKAMESQRAYRFVQGKDWGLKKFIRRDFLLDEANGLLPDDKLTLFCEVSVVQDSVNISGQNTMNMVKVPECRLADELGGLWENSRFTDCCLCVAGQEFQAHKAILAARSPVFSAMFEHEMEESKKNRVEINDVEPEVFKEMMCFIYTGKAPNLDKMADDLLAAADKYALERLKVMCEDALCSNLSVENAAEILILADLHSADQLKTQAVDFINYHASDVLETSGWKSMVVSHPHLVAEAYRSLASAQCPFLGPPRKRLKQS [F133L], the “effect of a mutation on the interaction” value is recorded as “with no effect”.

Variants of B1 are the subject of another assay. As to conditions: with cdk4_human CDK4, P11802.
As for MSRVPSPPPPAEMSSGPVAESWCYTQIKVVKFSYMWTINNFSFCREEMGEVIKSSTFSSGANDKLKWCLRVNPKGLDEESKDYLSLYLLLVSCPKSEVRAKFKFSILNAKGEETKAMESQRAYRFVQGKDWGLKKFIRRDFLLDEANGLLPDDKLTLFCEVSVVQDSVNISGQNTMNMVKVPECRLADELGGLWENSRFTDCCLCVAGQEFQAHKAILAARSPVFSAMFEHEMEESKKNRVEINDVEPEVFKEMMCFIYTGKAPNLDKMADDLLAAADKYALERLKVMCEDALCSNLSVENAAEILILADLHSADQLKTQAVDFINYHASDVLETSGWKSMVVSHPHLVAEAYRSLASAQCPFLGPPRKRLKQS [F133L], the “effect of a mutation on the interaction” value is reported as “with no effect”.
